Measured values taken from patent publication EP1151102B1.
Like-named read-outs stand apart in the source and are kept apart here.

Tests used:
[1] = target: chimeric leptin receptor-EPO receptor (OBR-EPOR) on 32D-OBECA cells (human; murine) (UniProt P48357); assay: cell-based or functional assay
[2] = target: human leptin receptor (short form), membrane-bound, from stably transfected CHO cells (human) (UniProt P48357); assay: 125I-Leptin competition on membranes of CHO cells expressing human leptin receptor; IC50 vs WT
[3] = target: human leptin receptor (short form), membrane-bound, from stably transfected CHO cells (human) (UniProt P48357); assay: as above; remark: listed apart in the source

| Substance | Bio activity Rel. to WT. [1] | Receptor binding Rel. to WT. [2] | Bioactivity Rel. to WT. [1] | Bio-activity Rel. to WT. [1] | Receptor binding Rel. to WT. [3] |
| --- | --- | --- | --- | --- | --- |
| rHu-Leptin 1-145 (ligand) | 0.14 rel. to WT | 1.3 rel. to WT |  |  |  |
| rHu-Leptin 1-145 expressed with the erythropoietin signal peptide (ligand) | 0.36 rel. to WT | 0.6 rel. to WT |  |  |  |
| rHu-Leptin 1-146 (wild type) (ligand) | 1 rel. to WT | 1 rel. to WT | 1 rel. to WT |  |  |
| rHu-Leptin 1-146 expressed with the erythropoietin signal peptide and human albumin prosequence (ligand) | 1.8 rel. to WT | 3.5 rel. to WT |  |  |  |
| rHu-Leptin 1-146 expressed with the native human erythropoietin signal peptide (ligand) | 0.95 rel. to WT | 1 rel. to WT |  |  |  |
| rHu-Leptin 1-146, site 4 (QKV > NKV) (ligand) |  | 1.7 rel. to WT | 0.73 rel. to WT |  |  |
| rHu-Leptin 1-146, site 5 (KVQ > NVT) (ligand) |  | 1.7 rel. to WT | 0.05 rel. to WT |  |  |
| rHu-Leptin 1-146, site 7 (QDD > NDT) (ligand) |  | 1.25 rel. to WT | 0.04 rel. to WT |  |  |
| rHu-Leptin 1-146, site 8 (DDT > NDT) (ligand) |  | 1.2 rel. to WT | 1.2 rel. to WT |  |  |
| rHu-Leptin 1-146, site 23a (DIS > NIT) (ligand) |  |  | 0.53 rel. to WT | 0.53 rel. to WT |  |
| rHu-Leptin 1-146, site 23a (DIS > NIT), erythropoietin signal peptide (ligand) |  | 0.5 rel. to WT |  | 0.79 rel. to WT |  |
| rHu-Leptin 1-146, site 25 (SHT > NHT) (ligand) |  | 0.4 rel. to WT | 0.02 rel. to WT |  |  |
| rHu-Leptin 1-146, site 26 (HTQ > NTT) (ligand) |  | 1.5 rel. to WT | 0.01 rel. to WT |  |  |
| rHu-Leptin 1-146, site 27 (TQS > NQT) (ligand) |  | 0.7 rel. to WT | 0.13 rel. to WT |  |  |
| rHu-Leptin 1-146, site 29 (SVS > NVT) (ligand) |  | 0.6 rel. to WT | 0.5 rel. to WT |  |  |
| rHu-Leptin 1-146, site 33 (KQK > NQT) (ligand) |  | 0.9 rel. to WT | 0.04 rel. to WT |  |  |
| rHu-Leptin 1-146, site 35 (KVT > NVT) (ligand) |  | 0.5 rel. to WT | 0.13 rel. to WT |  |  |
| rHu-Leptin 1-146, site 37 (TGL > NGT) (ligand) |  | 0.4 rel. to WT | 0.043 rel. to WT |  |  |
| rHu-Leptin 1-146, site 38 (GLD > NLT) (ligand) |  | 0.2 rel. to WT | 0.036 rel. to WT |  |  |
| rHu-Leptin 1-146, site 43 (PGL > NGT) (ligand) |  | 1.5 rel. to WT | 0.014 rel. to WT |  |  |
| rHu-Leptin 1-146, site 44 (GLH > NLT) (ligand) |  | 2 rel. to WT | 0.78 rel. to WT |  |  |
| rHu-Leptin 1-146, site 45 (CHP > NHT) (ligand) |  | 0.5 rel. to WT | 0.08 rel. to WT |  |  |
| rHu-Leptin 1-146, site 46 (HPI > NPT) (ligand) |  | 0.11 rel. to WT | 0.27 rel. to WT |  |  |
| rHu-Leptin 1-146, site 47 (PIL > NIT) (ligand) |  | 0.66 rel. to WT | 0.84 rel. to WT | 0.84 rel. to WT |  |
| rHu-Leptin 1-146, site 48 (ILT > NLT) (ligand) |  | 0.8 rel. to WT | 0.53 rel. to WT | 0.53 rel. to WT |  |
| rHu-Leptin 1-146, site 67 (SMP > NMT) (ligand) |  | 0.8 rel. to WT | 0.52 rel. to WT |  |  |

| Substance | Bio activity Rel. to WT. [1] | Receptor binding Rel. to WT. [2] | Bioactivity Rel. to WT. [1] | Bio-activity Rel. to WT. [1] | Receptor binding Rel. to WT. [3] |
| --- | --- | --- | --- | --- | --- |
| rHu-Leptin 1-146, site 68 (MPS > NAT) (ligand) |  | 0.8 rel. to WT | 0.036 rel. to WT |  |  |
| rHu-Leptin 1-146, site 69 (PSR > NST) (ligand) |  | 0.6 rel. to WT | 1.1 rel. to WT | 1.1 rel. to WT |  |
| rHu-Leptin 1-146, site 70 (SRN > NRT) (ligand) |  | 1 rel. to WT | 1 rel. to WT |  |  |
| rHu-Leptin 1-146, site 71 (RNV > NNT) (ligand) |  | 1.9 rel. to WT | 0.3 rel. to WT |  |  |
| rHu-Leptin 1-146, site 72 (NVI > NVT) (ligand) |  | 1.7 rel. to WT | 0.26 rel. to WT |  |  |
| rHu-Leptin 1-146, site 73 (VIQ > NIT) (ligand) |  | 8 rel. to WT | 0.01 rel. to WT |  |  |
| rHu-Leptin 1-146, site 77 (SND > NNT), expressed with the erythropoietin signal peptide (ligand) |  | 2.2 rel. to WT | < 0.02 rel. to WT |  |  |
| rHu-Leptin 1-146, site 92 (FSK > NST) (ligand) |  | 1.6 rel. to WT | 0.67 rel. to WT | 0.8 rel. to WT |  |
| rHu-Leptin 1-146, site 93 (SKS > NKT) (ligand) |  |  | 1.1 rel. to WT |  |  |
| rHu-Leptin 1-146, site 97 (HLP > NLT) (ligand) |  |  | 1.1 rel. to WT |  |  |
| rHu-Leptin 1-146, site 99 (PWA > NWT) (ligand) |  | 0.9 rel. to WT | 0.5 rel. to WT |  |  |
| rHu-Leptin 1-146, site 100a (PWAS > SNAT) (ligand) |  | 0.6 rel. to WT | 0.9 rel. to WT |  |  |
| rHu-Leptin 1-146, site 100b (WAS > NAS) (ligand) |  | 0.7 rel. to WT | 1.46 rel. to WT |  |  |
| rHu-Leptin 1-146, site 100c (WAS > NAT) (ligand) |  | 0.45 rel. to WT | 0.81 rel. to WT |  |  |
| rHu-Leptin 1-146, site 100d (PWAS > ANAT) (ligand) |  | 1.45 rel. to WT | 0.26 rel. to WT |  |  |
| rHu-Leptin 1-146, site 100e (WAS > TAS) (ligand) |  | > 1.9 rel. to WT | 0.83 rel. to WT |  |  |
| rHu-Leptin 1-146, site 101 (ASG > NST) (ligand) |  | 0.7 rel. to WT | 0.33 rel. to WT |  |  |
| rHu-Leptin 1-146, site 102 (SGL > NGT) (ligand) |  | 0.6 rel. to WT | 0.85 rel. to WT | 0.66 rel. to WT | 0.5 rel. to WT |
| rHu-Leptin 1-146, site 103 (GLE > NLT) (ligand) |  | 1 rel. to WT | 0.73 rel. to WT |  |  |
| rHu-Leptin 1-146, site 115 (EAS > NAT) (ligand) |  | 0.9 rel. to WT | 0.006 rel. to WT |  |  |
| rHu-Leptin 1-146, site 116 (ASG > NST) (ligand) |  | 0.9 rel. to WT | 0.56 rel. to WT |  |  |
| rHu-Leptin 1-146, site 117 (SGY > NGT) (ligand) |  | 1.9 rel. to WT | 0.01 rel. to WT |  |  |
| rHu-Leptin 1-146, site 118 (GYS > NYT) (ligand) |  | 0.8 rel. to WT | 3.8 rel. to WT |  |  |
| rHu-Leptin 1-146, site 119 (YST > NST) (ligand) |  | 0.8 rel. to WT | 0.02 rel. to WT |  |  |
| rHu-Leptin 1-146, site 120 (STE > NTT) (ligand) |  | 0.7 rel. to WT | 0.01 rel. to WT |  |  |
| rHu-Leptin 1-146, site 141 (DLS > NLT) (ligand) |  | 0.3 rel. to WT | 1 rel. to WT |  |  |
